Consider three molecules from paper PMC12624060, “Structures of human organellar SPFH protein complexes” (Nature Communications, 2025).

Series [1] deals with the molecule itself. The series is described as follows: cryo-EM structure; Erlin1/2 complex after tandem affinity purification and SEC, in 50 mM HEPES/KOH pH 7.4, 150 mM NaCl, 0.02% DDM, 0.004% CHS; single-particle map at 3.0 Å, no symmetry applied in the last refinement.
A further series has as its target T1, untagged PHB2 (human, UniProt Q99623 1-299).
T1 construct: PHB2 (prohibitin 2), human; 11 copies in the 22-subunit PHB1/2 complex; source: complex purified on StrepTactin; copies: 11
The series is described as follows: cryo-EM structure; PHB1/2 complex after one-step StrepTactin purification, in 20 mM HEPES/KOH pH 7.4, 50 mM K-phosphate, 150 mM KCl, 5 mM magnesium acetate, 5 mM ATP, DDM/CHS; closed (2.4 Å) and open (3.1 Å) conformations, C11 symmetry. The conditions noted are these: both partners purified.

T1 sequence (Q99623 whole entry): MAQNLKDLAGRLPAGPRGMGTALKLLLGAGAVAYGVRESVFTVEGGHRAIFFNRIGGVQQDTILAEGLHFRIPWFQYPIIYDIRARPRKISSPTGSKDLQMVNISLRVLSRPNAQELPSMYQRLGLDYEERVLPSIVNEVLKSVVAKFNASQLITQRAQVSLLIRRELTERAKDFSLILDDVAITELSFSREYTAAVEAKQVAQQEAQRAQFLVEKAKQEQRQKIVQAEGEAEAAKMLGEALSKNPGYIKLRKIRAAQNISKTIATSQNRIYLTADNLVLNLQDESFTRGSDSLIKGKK

B1: N-terminally Strep-tagged Erlin1 (natural protein, human)
chain: MTQARVLVAAVVGLVAVLLYASIHKIEEGHLAVYYRGGALLTSPSGPGYHIMLPFITTFRSVQTTLQTDEVKNVPCGTSGGVMIYIDRIEVVNMLAPYAVFDIVRNYTADYDKTLIFNKIHHELNQFCSAHTLQEVYIELFDQIDENLKQALQKDLNLMAPGLTIQAVRVTKPKIPEAIRRNFELMEAEKTKLLIAAQKQKVVEKEAETERKKAVIEAEKIAQVAKIRFQQKVMEKETEKRISEIEDAAFLAREKAKADAEYYAAHKYATSNKHKLTPEYLELKKYQAIASNSKIYFGSNIPNMFVDSSCALKYSDIRTGRESSLPSKEALEPSGENVIQNKESTG
modifications: N-linked glycan on N108
notes: Erlin1, human; cDNA in pcDNA5; 13 copies in the 26-subunit Erlin1/2 complex as modelled; source: Expi293F, co-transfected with Erlin2-Flag; complex purified (StrepTactin, anti-FLAG M2, Superose 6) in DDM/CHS; not shown: Strep, N-terminal, kept; copies: 13
In the case of B1, the binding result in series [1] is given as “binds”.

B2: N-terminally Strep-tagged PHB1 (stable Expi293F line) (natural protein, human)
chain: MAAKVFESIGKFGLALAVAGGVVNSALYNVDAGHRAVIFDRFRGVQDIVVGEGTHFLIPWVQKPIIFDCRSRPRNVPVITGSKDLQNVNITLRILFRPVASQLPRIFTSIGEDYDERVLPSITTEILKSVVARFDAGELITQRELVSRQVSDDLTERAATFGLILDDVSLTHLTFGKEFTEAVEAKQVAQQEAERARFVVEKAEQQKKAAIISAEGDSKAAELIANSLATAGDGLIELRKLEAAEDIAYQLSRSRNITYLPAGQSVLLQLPQ
notes: PHB1 (prohibitin 1), human; cDNA in pHAGE; 11 copies in the 22-subunit PHB1/2 complex; also called prohibitin; source: solubilised membranes (DDM/CHS) and complex purified on StrepTactin; not shown: Strep, N-terminal, kept; copies: 11
Take B2: the “stoichiometry N” value in the series with untagged PHB2 is 11 heterodimers in the complex.

B3: C-terminally Flag-tagged Erlin2 (natural protein, human)
chain: MAQLGAVVAVASSFFCASLFSAVHKIEEGHIGVYYRGGALLTSTSGPGFHLMLPFITSYKSVQTTLQTDEVKNVPCGTSGGVMIYFDRIEVVNFLVPNAVYDIVKNYTADYDKALIFNKIHHELNQFCSVHTLQEVYIELFDQIDENLKLALQQDLTSMAPGLVIQAVRVTKPNIPEAIRRNYELMESEKTKLLIAAQKQKVVEKEAETERKKALIEAEKVAQVAEITYGQKVMEKETEKKISEIEDAAFLAREKAKADAECYTAMKIAEANKLKLTPEYLQLMKYKAIASNSKIYFGKDIPNMFMDSAGSVSKQFEGLADKLSFGLEDEPLETATKEN
modifications: N-linked glycan on N106
notes: Erlin2, human; cDNA in pcDNA5; 13 copies in the 26-subunit Erlin1/2 complex as modelled; also called Erlin2-Flag; source: Expi293F, co-transfected with Strep-Erlin1; complex purified (StrepTactin, anti-FLAG M2, Superose 6) in DDM/CHS; not shown: Flag, C-terminal, kept; copies: 13
For B3, in series [1], the binding result was “binds”.
